From paper PMC7326950, “Hypoxanthine-Guanine Phosphoribosyltransferase/adenylate Kinase From Zobellia galactanivorans: A Bifunctional Catalyst for the Synthesis of Nucleoside-5′-Mono-, Di- and Triphosphates” (Frontiers in Bioengineering and Biotechnology, 2020)

B1: hypoxanthine-guanine phosphoribosyltransferase (HGPRT)/adenylate kinase (AMPK) from Zobellia galactanivorans (enzyme, UniProt G0LC40 1-368, looked up)
chain: MIKLHDKHFKPFLSEAQIKAAVKKVAEQVAADYKDETPIFVGVLNGAFMFISDFLKEYQYPCEVSFVKLSSYQGLTSTGIVETLLDVSENIEGRSVIILEDIIDTGRTLKKLVHLFSKANVKEFRVASLFYKSEVYNGEYTIDYVGIDIPDKFIVGYGLDYNELGRNLREVYQLNQKHMINLVLFGKPGAGKGTQAEFLKDKYNLKHISTGDLFRFNMKNDTELGKLAKSYIDRGDLVPDEVTIKMLQDAVEKNPEASGFIFDGFPRTVAQAEALDKFLATKDMKIDATIALEANDEVLIQRLLERGKVSGRSDDQDESKIRNRFDEYNEKTAPLKDFYENQGKFHSVNGIGAIDEITHRLGKVIEEL
notes: gene from GenScript cloned NheI-BamHI into pET28b(+); The vector encodes a thrombin cleavage site between the His6 tag and the enzyme; no cleavage is described, and the measured mass is compared with that of the His6-tagged protein (43.77 kDa); also called ZgHGPRT/AMPK; HGPRT/AMPK; source: E. coli BL21(DE3), purified (HisTrap FF, Superdex 200); not shown: His6, N-terminal, kept

Columns and labels:
ZgHGPRT/AMPK = target: T1, ZgHGPRT/AMPK (Zobellia galactanivorans, UniProt G0LC40); experiment: steady-state kinetics, HPLC of IMP formation, non-linear regression; assay type: biochemical; details: HGPRT domain; apparent substrate inhibition at high Hyp; PRPP fixed at 5 mM; varied Hyp 0.5–17.2 mM; Mg2+
T1 construct: gene adkA; homodimer
Source text: (§1) steady-state kinetics, HPLC of IMP formation, non-linear regression on ZgHGPRT/AMPK

purified protein = substrate: Nc1ncnc2c1ncn2[C@@H]1O[C@H](COP(=O)(O)O)[C@@H](O)[C@H]1O; experiment: purified protein; details: AMPK domain; apparent; ATP fixed at 3.2 mM; varied AMP 0.5–10 mM; Mg2+
[1] = substrate: Nc1ncnc2c1ncn2[C@@H]1O[C@H](COP(=O)(O)OP(=O)(O)OP(=O)(O)O)[C@@H](O)[C@H]1O; experiment: steady-state kinetics, HPLC of ADP formation, non-linear regression; assay type: biochemical, Zobellia galactanivorans; details: AMPK domain; apparent; AMP fixed at 3.2 mM; varied ATP 0.5–10 mM; Mg2+
Source text: steady-state kinetics, HPLC of ADP formation, non-linear regression on ZgHGPRT/AMPK

[2] = substrate: O=P(O)(O)OC[C@H]1O[C@H](OP(=O)(O)OP(=O)(O)O)[C@H](O)[C@@H]1O; experiment: steady-state kinetics, HPLC of IMP formation, non-linear regression; assay type: biochemical, Zobellia galactanivorans; details: HGPRT domain; apparent; Hyp fixed at 5 mM; varied PRPP 0.5–17.2 mM; Mg2+
Source text: as §1

[3] = substrate: O=c1[nH]cnc2nc[nH]c12; experiment: as above; assay type: biochemical, Zobellia galactanivorans; details: HGPRT domain; apparent; PRPP fixed at 5 mM; varied Hyp 0.5–17.2 mM; Mg2+
Source text: as §1

[4] = target: the molecule itself; experiment: AUC; sedimentation velocity, 20 mM Tris-HCl pH 8, 20°C, 50,000 x g, profiles at 292 nm, c(s) by SEDFIT; protein 0.4 mg/ml

Row | Molecule | Value with variable substrate / Hyp^a (ZgHGPRT/AMPK) | Km (purified protein) | kcat (purified protein) | kcat/Km (purified protein) | Km [1] | kcat [1] | kcat/Km [1] | Km [2] | kcat [2] | kcat/Km [2] | Km [3] | kcat [3] | kcat/Km [3] | stoichiometry N [4]
1 | O=c1[nH]cnc2nc[nH]c12 [compound 1, hypoxanthine] | 11.12 ± 1.02 mM | – | – | – | – | – | – | – | – | – | – | – | – | –
2 | B1 | – | 8.02 ± 0.40 mM | 0.16 s⁻¹ | 20 M⁻¹ s⁻¹ | 0.77 ± 0.04 mM | 0.07 ± 0.003 s⁻¹ | 100 M⁻¹ s⁻¹ | 6.77 ± 0.41 mM | 2.82 ± 0.21 s⁻¹ | 420 M⁻¹ s⁻¹ | 1.01 ± 0.05 mM | 1.11 ± 0.06 s⁻¹ | 1100 M⁻¹ s⁻¹ | 2
